The record followed here is article doi:10.1101/2025.06.18.660434.

This test addresses GST-fusion RACK1 (UniProt P63244). Put plainly: pull-down.

By Kd is commonly meant the concentration at which binding is half-saturated. Read a high Kd as weaker binding.

For “His-tagged PKAcα (from UniProt P17612 1-351) (enzyme)”, the Kd came to 32 nM.
